# Results from patent US20260250366A1 (RIN INSTITUTE, published 2026).
# Key:
# [1] = target: T1, AMU1114 (Homo sapiens (Human), UniProt P0DOX7 1-214); assay: assay not named in the sentence (ELISA of FIG. 5 presumably)
# T1 construct: Complex of a fusion heavy chain (Fab region linked to a prourokinase mutant) and an antibody light chain; F396 of the heavy chain corresponds to F157 of urokinase
# Procedure: (§1) The concentration of each of the human and mouse urokinase receptors was adjusted with PBS to 1 μg/mL. The resultant solution was dispensed in the wells of a 96-well plate in a volume of 50 μL/well, allowed to stand still at room temperature for 90 minutes to immobilize the receptor. To the plate having the receptor immobilized thereon, TBS-T containing 1% BSA was dispensed in a volume of 300 μL/well. The plate was allowed to stand still at room temperature for 60 minutes to block the plate. To the plate blocked, the sample (mutant) adjusted in concentration to 1000 ng/mL, 111.1 ng/mL or 12.3 ng/mL was added in a volume of 50 μL/well and allowed to react at room temperature for 60 minutes. After washing with TBS-T, HRP-conjugated anti-human Kappa chain antibody (Bethyl) diluted with 1% BSA-containing TBS-T to 1/50,000 fold was dispensed in a volume of 50 μL/well and allowed to react at room temperature for 60 minutes. After washing, a TMB (3,3′,5,5′-tetramethylbenzidine) coloring reagent was allowed to react for 15 minutes. The reaction was terminated with 2N H₂SO₄ (30 μL/well). Absorbance at 450 nm was measured.
# [2] = target: AMU1114 (Δ22-28, F157E) mutant (Homo sapiens (Human), UniProt P0DOX7 1-214); assay: ELISA, receptor immobilized, detection with HRP anti-human Kappa chain antibody; compared with PBS
# AMU1114 (Δ22-28, F157E) mutant, sequence (P0DOX7 other isoform, or with tags, fused parts or gaps F157E F157E limits assumed, chain 2 of 2, other chains not shown): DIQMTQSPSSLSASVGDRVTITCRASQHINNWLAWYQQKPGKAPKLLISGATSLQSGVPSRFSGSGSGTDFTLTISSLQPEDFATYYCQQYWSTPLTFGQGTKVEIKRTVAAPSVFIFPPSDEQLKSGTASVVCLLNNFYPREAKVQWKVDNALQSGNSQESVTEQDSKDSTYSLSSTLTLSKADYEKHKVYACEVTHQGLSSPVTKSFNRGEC
# Procedure: as §1
# T1 sequence (P0DOX7 other isoform, or with tags, fused parts or gaps limits assumed, chain 2 of 2, other chains not shown): as the sequence (P0DOX7 other isoform, or with tags, fused parts or gaps F157E F157E limits assumed, chain 2 of 2, other chains not shown) above
binder,measurement,setting,value
"mouse urokinase receptor (receptor, Immobilized on the plate at 1 µg/mL) LQCMQCESNQSCLVEECALGQDLCRTTVLREWQDDRELEVVTRGCAHSEKTNRTMSYRMGSMIISLTETVCATNLCNRPRPGARGRAFPQGRYLECASCTSLDQSCERGREQSLQCRYPTEHCIEVVTLQSTERSLKDEDYTRGCGSLPGCPGTAGFHSNQTFHFLKCCNYTHCNGGPVLDLQSFPPNGFQCYSCEGNNTLGCSSEEASLINCRGPMNQCLVATGLDVLGNRSYTVRGCATASWCQGSHVADSFPTHLNVSVSCCHGSGCNSPTGHHHHHH",binding result,[1],no binding
same,binding result,[2],no binding
